In the supplement of paper PMC10065799, “High-throughput profiling of sequence recognition by tyrosine kinases and SH2 domains using bacterial peptide display” (eLife, 2023):

Assays:
Fer (mouse) = experiment: phosphorylation enrichment, bacterial display (enrichment ratio); higher = better substrate or ligand; peptides without Tyr show the background
AncSZ = experiment: as above
Hck = Hck (UniProt P08631); experiment: as above
EPHB1 = EPHB1 (UniProt P54762); experiment: as above
FGFR1 = FGFR1 (UniProt P11362); experiment: as above
c-Src = experiment: as above
Fyn = Fyn (UniProt P06241); experiment: as above
Fes = Fes (UniProt P07332); experiment: as above
FGFR3 = FGFR3 (UniProt P22607); experiment: as above
Jak2 = Jak2 (UniProt O60674); experiment: as above
MERTK = MERTK (UniProt Q12866); experiment: as above
c-Abl (mouse) = experiment: as above
EPHB2 = EPHB2 (UniProt P29323); experiment: as above
c-Src SH2 = experiment: SH2 binding enrichment of the phosphorylated peptide, bacterial display (enrichment ratio); higher = better substrate or ligand; peptides without Tyr show the background
SHP2-C SH2 = experiment: as above
Grb2 SH2 = Grb2 SH2 (UniProt P62993); experiment: as above
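For SH2 binding enrichment of the phosphorylated peptide, bacterial display in this document: peptide library displayed on the E. coli surface as eCPX fusions, selected cells deep-sequenced, score is each peptide's frequency after selection divided by its frequency in the input.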
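For phosphorylation enrichment, bacterial display in this document: 11-residue human phosphosite peptides and single-mutation variants displayed on the E. coli surface, counted by deep sequencing, each peptide's frequency after selection divided by its frequency in the unselected input library; frequency after pTyr selection over input frequency; kinase dosed for 20-30% of maximal phosphorylation in three min.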

Sequence of Fyn (P06241 whole entry, looked up): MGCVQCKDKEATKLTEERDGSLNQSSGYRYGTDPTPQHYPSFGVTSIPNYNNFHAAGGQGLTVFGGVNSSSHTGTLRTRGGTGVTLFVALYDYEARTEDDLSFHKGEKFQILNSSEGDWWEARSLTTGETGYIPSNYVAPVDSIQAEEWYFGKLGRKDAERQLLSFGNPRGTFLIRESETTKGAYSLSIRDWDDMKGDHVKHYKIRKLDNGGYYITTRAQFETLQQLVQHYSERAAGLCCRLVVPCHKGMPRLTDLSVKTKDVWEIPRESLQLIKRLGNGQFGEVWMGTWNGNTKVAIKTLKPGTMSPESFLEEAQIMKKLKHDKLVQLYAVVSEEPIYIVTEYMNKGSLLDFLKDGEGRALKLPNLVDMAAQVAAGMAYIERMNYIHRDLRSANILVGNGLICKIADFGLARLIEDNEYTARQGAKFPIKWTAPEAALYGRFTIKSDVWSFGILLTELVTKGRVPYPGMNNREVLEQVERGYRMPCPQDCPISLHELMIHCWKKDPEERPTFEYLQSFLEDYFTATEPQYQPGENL
Sequence of MERTK (Q12866 whole entry, looked up): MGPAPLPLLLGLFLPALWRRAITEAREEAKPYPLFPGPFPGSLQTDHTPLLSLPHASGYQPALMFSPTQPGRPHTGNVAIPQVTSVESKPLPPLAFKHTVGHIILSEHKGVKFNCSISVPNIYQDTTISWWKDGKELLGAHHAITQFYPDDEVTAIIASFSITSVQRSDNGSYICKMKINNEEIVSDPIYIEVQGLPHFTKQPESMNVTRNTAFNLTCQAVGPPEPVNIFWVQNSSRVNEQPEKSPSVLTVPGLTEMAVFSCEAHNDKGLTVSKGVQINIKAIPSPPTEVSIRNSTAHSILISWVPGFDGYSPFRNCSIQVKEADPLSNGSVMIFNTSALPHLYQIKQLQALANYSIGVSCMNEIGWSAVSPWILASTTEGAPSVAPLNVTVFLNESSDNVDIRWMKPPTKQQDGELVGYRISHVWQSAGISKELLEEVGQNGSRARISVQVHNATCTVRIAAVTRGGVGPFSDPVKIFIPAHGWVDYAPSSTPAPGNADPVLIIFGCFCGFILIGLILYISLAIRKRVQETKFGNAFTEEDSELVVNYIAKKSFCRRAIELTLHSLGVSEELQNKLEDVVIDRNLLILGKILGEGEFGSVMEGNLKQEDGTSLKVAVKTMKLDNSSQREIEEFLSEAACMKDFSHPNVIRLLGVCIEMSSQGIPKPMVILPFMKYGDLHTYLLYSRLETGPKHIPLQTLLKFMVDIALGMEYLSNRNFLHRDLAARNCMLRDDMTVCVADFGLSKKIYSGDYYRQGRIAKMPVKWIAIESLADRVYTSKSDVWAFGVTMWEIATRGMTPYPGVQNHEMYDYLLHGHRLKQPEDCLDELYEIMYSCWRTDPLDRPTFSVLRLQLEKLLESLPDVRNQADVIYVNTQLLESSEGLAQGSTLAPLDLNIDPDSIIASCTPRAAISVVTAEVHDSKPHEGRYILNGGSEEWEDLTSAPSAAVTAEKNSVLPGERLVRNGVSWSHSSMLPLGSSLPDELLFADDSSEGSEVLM
Sequence of Hck (P08631 whole entry, looked up): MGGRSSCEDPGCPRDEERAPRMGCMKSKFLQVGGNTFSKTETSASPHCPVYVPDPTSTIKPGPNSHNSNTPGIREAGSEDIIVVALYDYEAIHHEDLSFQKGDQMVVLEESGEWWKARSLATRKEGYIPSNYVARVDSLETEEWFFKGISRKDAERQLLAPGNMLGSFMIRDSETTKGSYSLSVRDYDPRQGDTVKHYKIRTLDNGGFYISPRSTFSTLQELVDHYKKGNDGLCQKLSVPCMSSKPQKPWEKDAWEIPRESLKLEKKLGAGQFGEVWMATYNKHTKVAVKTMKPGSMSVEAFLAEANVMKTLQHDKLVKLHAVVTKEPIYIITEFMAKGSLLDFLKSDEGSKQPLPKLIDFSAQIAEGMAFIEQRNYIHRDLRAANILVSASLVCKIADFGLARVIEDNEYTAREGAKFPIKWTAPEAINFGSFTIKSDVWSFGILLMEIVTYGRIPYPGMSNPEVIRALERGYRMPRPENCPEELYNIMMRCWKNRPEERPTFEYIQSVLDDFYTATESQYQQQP
Sequence of Grb2 SH2 (P62993 whole entry, looked up, the tested form may be a part): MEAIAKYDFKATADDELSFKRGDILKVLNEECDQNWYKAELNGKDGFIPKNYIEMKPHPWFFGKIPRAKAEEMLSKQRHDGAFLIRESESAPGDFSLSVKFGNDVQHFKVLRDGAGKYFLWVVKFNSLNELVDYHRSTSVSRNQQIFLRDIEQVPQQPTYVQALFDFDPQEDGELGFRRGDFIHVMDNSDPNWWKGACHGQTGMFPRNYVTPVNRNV
Sequence of Fes (P07332 whole entry, looked up): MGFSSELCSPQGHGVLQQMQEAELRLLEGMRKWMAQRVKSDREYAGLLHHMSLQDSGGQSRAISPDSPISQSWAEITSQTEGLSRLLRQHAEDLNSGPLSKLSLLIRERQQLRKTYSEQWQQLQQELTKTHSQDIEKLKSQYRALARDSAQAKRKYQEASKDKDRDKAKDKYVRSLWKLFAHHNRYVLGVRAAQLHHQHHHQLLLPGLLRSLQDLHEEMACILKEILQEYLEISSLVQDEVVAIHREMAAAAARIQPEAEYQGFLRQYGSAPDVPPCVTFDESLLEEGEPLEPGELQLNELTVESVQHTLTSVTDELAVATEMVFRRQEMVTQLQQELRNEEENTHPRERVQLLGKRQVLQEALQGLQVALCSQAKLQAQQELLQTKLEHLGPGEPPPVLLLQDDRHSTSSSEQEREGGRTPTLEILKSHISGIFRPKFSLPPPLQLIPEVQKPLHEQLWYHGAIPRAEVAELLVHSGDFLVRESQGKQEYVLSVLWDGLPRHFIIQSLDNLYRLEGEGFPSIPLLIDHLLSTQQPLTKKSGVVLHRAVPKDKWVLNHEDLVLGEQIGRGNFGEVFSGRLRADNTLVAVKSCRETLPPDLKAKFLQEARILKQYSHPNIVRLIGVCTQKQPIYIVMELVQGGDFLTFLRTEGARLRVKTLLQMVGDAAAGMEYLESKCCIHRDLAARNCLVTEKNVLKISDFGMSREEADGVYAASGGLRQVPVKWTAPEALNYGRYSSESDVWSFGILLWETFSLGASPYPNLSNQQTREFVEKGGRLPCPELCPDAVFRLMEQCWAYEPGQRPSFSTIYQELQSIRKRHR
Sequence of EPHB2 (P29323 whole entry, looked up): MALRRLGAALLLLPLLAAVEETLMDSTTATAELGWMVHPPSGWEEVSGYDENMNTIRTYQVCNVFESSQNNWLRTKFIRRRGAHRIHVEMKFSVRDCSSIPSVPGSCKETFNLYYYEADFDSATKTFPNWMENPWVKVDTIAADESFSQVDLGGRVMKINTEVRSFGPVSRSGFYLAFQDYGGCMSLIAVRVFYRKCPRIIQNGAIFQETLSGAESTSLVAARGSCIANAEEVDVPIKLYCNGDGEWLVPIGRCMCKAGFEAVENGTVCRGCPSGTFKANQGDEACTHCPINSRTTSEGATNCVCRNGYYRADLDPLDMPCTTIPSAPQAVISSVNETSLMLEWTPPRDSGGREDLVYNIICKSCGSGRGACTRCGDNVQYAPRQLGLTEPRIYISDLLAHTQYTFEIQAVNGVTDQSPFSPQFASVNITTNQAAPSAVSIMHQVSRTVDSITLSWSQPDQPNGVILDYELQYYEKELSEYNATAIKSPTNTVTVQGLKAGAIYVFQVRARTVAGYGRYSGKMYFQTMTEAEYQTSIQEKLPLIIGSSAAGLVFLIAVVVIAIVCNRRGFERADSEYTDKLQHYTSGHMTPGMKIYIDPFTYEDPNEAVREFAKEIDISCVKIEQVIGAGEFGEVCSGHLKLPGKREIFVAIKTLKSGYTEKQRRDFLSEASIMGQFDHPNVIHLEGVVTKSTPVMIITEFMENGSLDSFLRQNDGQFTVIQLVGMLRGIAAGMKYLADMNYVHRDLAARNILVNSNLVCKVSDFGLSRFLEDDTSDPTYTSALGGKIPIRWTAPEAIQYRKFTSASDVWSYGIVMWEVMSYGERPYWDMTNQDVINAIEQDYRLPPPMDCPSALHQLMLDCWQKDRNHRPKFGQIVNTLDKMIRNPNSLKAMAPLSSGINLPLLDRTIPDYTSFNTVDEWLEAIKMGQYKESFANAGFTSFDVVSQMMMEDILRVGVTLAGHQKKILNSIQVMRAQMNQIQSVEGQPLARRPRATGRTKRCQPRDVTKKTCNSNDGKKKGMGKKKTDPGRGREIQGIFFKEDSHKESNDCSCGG
Sequence of FGFR1 (P11362 whole entry, looked up): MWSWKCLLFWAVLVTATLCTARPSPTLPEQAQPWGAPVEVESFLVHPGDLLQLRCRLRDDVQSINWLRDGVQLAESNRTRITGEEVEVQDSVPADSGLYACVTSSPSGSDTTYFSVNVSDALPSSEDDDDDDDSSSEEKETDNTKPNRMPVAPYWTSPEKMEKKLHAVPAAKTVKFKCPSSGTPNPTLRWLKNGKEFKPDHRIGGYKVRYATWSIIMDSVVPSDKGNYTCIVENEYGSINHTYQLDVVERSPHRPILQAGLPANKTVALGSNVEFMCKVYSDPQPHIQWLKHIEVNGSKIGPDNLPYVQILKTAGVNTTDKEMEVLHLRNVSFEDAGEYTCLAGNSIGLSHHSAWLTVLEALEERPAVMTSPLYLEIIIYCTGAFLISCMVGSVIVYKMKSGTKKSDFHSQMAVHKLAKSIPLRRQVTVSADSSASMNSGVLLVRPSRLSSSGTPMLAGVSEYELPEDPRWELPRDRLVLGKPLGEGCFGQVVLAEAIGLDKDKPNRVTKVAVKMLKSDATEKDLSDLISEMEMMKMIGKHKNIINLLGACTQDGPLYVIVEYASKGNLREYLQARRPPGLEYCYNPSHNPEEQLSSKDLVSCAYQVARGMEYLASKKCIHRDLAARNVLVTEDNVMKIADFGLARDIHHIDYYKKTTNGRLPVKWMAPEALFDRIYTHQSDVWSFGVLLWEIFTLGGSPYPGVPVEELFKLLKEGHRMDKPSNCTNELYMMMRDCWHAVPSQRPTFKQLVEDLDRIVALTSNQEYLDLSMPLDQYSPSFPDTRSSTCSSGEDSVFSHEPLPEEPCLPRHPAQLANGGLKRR

Sequence: KLKNAYEESLE [MYH7_Y1488]
- phosphorylation enrichment (Fer (mouse)): 0.454
- phosphorylation enrichment (AncSZ): 0.982
- phosphorylation enrichment (Hck): 0.384
- phosphorylation enrichment (EPHB1): 0.491
- phosphorylation enrichment (FGFR1): 0.65
- phosphorylation enrichment (c-Src): 0.472
- phosphorylation enrichment (Fyn): 0.429
- phosphorylation enrichment (Fes): 1.14
- phosphorylation enrichment (FGFR3): 0.612
- phosphorylation enrichment (Jak2): 0.908
- phosphorylation enrichment (MERTK): 0.452
- phosphorylation enrichment (c-Abl (mouse)): 0.743
- phosphorylation enrichment (EPHB2): 0.445
- SH2 binding enrichment (c-Src SH2): 0.654
- SH2 binding enrichment (SHP2-C SH2): 0.761
- SH2 binding enrichment (Grb2 SH2): 0.531

Sequence: TPTYPYLLPKS [PLD2_Y580]
- phosphorylation enrichment (Fer (mouse)): 0.286
- phosphorylation enrichment (AncSZ): 0.527
- phosphorylation enrichment (Hck): 0.441
- phosphorylation enrichment (EPHB1): 0.29
- phosphorylation enrichment (FGFR1): 0.63
- phosphorylation enrichment (c-Src): 0.581
- phosphorylation enrichment (Fyn): 0.452
- phosphorylation enrichment (Fes): 0.599
- phosphorylation enrichment (FGFR3): 0.505
- phosphorylation enrichment (Jak2): 0.639
- phosphorylation enrichment (MERTK): 0.564
- phosphorylation enrichment (c-Abl (mouse)): 0.564
- phosphorylation enrichment (EPHB2): 0.349
- SH2 binding enrichment (c-Src SH2): 0.62
- SH2 binding enrichment (SHP2-C SH2): 0.899
- SH2 binding enrichment (Grb2 SH2): 0.768

Sequence: SVVVPYEPAEV [TP53_Y220_P223A]
- phosphorylation enrichment (Fer (mouse)): 0.596
- phosphorylation enrichment (AncSZ): 1.09
- phosphorylation enrichment (Hck): 0.498
- phosphorylation enrichment (EPHB1): 0.704
- phosphorylation enrichment (FGFR1): 0.566
- phosphorylation enrichment (c-Src): 0.539
- phosphorylation enrichment (Fyn): 0.433
- phosphorylation enrichment (Fes): 1.18
- phosphorylation enrichment (FGFR3): 0.719
- phosphorylation enrichment (Jak2): 1.1
- phosphorylation enrichment (MERTK): 0.488
- phosphorylation enrichment (c-Abl (mouse)): 0.708
- phosphorylation enrichment (EPHB2): 0.689
- SH2 binding enrichment (c-Src SH2): 1.11
- SH2 binding enrichment (SHP2-C SH2): 0.787
- SH2 binding enrichment (Grb2 SH2): 0.81

Sequence: KKRSSYGNSSD [SELENOK_Y52_R50S]
- phosphorylation enrichment (Fer (mouse)): 0.422
- phosphorylation enrichment (AncSZ): 0.57
- phosphorylation enrichment (Hck): 0.475
- phosphorylation enrichment (EPHB1): 0.4
- phosphorylation enrichment (FGFR1): 0.386
- phosphorylation enrichment (c-Src): 0.515
- phosphorylation enrichment (Fyn): 0.438
- phosphorylation enrichment (Fes): 0.508
- phosphorylation enrichment (FGFR3): 0.476
- phosphorylation enrichment (Jak2): 0.523
- phosphorylation enrichment (MERTK): 0.556
- phosphorylation enrichment (c-Abl (mouse)): 0.489
- phosphorylation enrichment (EPHB2): 0.462
- SH2 binding enrichment (c-Src SH2): 0.441
- SH2 binding enrichment (SHP2-C SH2): 0.609
- SH2 binding enrichment (Grb2 SH2): 0.686

Sequence: FTYDPYSEEEP [IL2RB_Y387_D391E]
- phosphorylation enrichment (Fer (mouse)): 0.601
- phosphorylation enrichment (AncSZ): 1.22
- phosphorylation enrichment (Hck): 0.825
- phosphorylation enrichment (EPHB1): 0.652
- phosphorylation enrichment (FGFR1): 0.5
- phosphorylation enrichment (c-Src): 1.69
- phosphorylation enrichment (Fyn): 1.14
- phosphorylation enrichment (Fes): 1.25
- phosphorylation enrichment (FGFR3): 0.818
- phosphorylation enrichment (Jak2): 1.27
- phosphorylation enrichment (MERTK): 0.524
- phosphorylation enrichment (c-Abl (mouse)): 0.915
- phosphorylation enrichment (EPHB2): 0.572
- SH2 binding enrichment (c-Src SH2): 0.817
- SH2 binding enrichment (SHP2-C SH2): 0.699
- SH2 binding enrichment (Grb2 SH2): 0.92

Sequence: EFQLPYFNMVP [BMPR1A_Y457_YF]
- phosphorylation enrichment (Fer (mouse)): 0.348
- phosphorylation enrichment (AncSZ): 1.01
- phosphorylation enrichment (Hck): 0.596
- phosphorylation enrichment (EPHB1): 0.389
- phosphorylation enrichment (FGFR1): 5
- phosphorylation enrichment (c-Src): 2.12
- phosphorylation enrichment (Fyn): 0.547
- phosphorylation enrichment (Fes): 1.01
- phosphorylation enrichment (FGFR3): 3.58
- phosphorylation enrichment (Jak2): 7.21
- phosphorylation enrichment (MERTK): 0.584
- phosphorylation enrichment (c-Abl (mouse)): 0.618
- phosphorylation enrichment (EPHB2): 0.46
- SH2 binding enrichment (c-Src SH2): 0.751
- SH2 binding enrichment (SHP2-C SH2): 0.95
- SH2 binding enrichment (Grb2 SH2): 2.82

Sequence: LGGAMYFLEAE [PKHD1_Y452_YF]
- phosphorylation enrichment (Fer (mouse)): 0.623
- phosphorylation enrichment (AncSZ): 1.53
- phosphorylation enrichment (Hck): 1.07
- phosphorylation enrichment (EPHB1): 0.999
- phosphorylation enrichment (FGFR1): 0.62
- phosphorylation enrichment (c-Src): 1.01
- phosphorylation enrichment (Fyn): 1.13
- phosphorylation enrichment (Fes): 1.8
- phosphorylation enrichment (FGFR3): 1.51
- phosphorylation enrichment (Jak2): 1.34
- phosphorylation enrichment (MERTK): 0.709
- phosphorylation enrichment (c-Abl (mouse)): 0.784
- phosphorylation enrichment (EPHB2): 0.984
- SH2 binding enrichment (c-Src SH2): 0.802
- SH2 binding enrichment (SHP2-C SH2): 0.75
- SH2 binding enrichment (Grb2 SH2): 0.868

Sequence: DAVCFYRMENA [NPHS2_Y195_I192V_YF]
- phosphorylation enrichment (Fer (mouse)): 0.614
- phosphorylation enrichment (AncSZ): 1.21
- phosphorylation enrichment (Hck): 0.788
- phosphorylation enrichment (EPHB1): 0.698
- phosphorylation enrichment (FGFR1): 0.698
- phosphorylation enrichment (c-Src): 3.07
- phosphorylation enrichment (Fyn): 0.986
- phosphorylation enrichment (Fes): 1.23
- phosphorylation enrichment (FGFR3): 1.06
- phosphorylation enrichment (Jak2): 1.22
- phosphorylation enrichment (MERTK): 0.695
- phosphorylation enrichment (c-Abl (mouse)): 0.882
- phosphorylation enrichment (EPHB2): 0.685
- SH2 binding enrichment (c-Src SH2): 0.437
- SH2 binding enrichment (SHP2-C SH2): 0.674
- SH2 binding enrichment (Grb2 SH2): 0.714

Sequence: GSSEGYLHMVH [NIPBL_Y247_D246G]
- phosphorylation enrichment (Fer (mouse)): 0.424
- phosphorylation enrichment (AncSZ): 0.616
- phosphorylation enrichment (Hck): 0.396
- phosphorylation enrichment (EPHB1): 0.333
- phosphorylation enrichment (FGFR1): 0.388
- phosphorylation enrichment (c-Src): 0.403
- phosphorylation enrichment (Fyn): 0.368
- phosphorylation enrichment (Fes): 0.679
- phosphorylation enrichment (FGFR3): 0.474
- phosphorylation enrichment (Jak2): 0.617
- phosphorylation enrichment (MERTK): 0.419
- phosphorylation enrichment (c-Abl (mouse)): 0.491
- phosphorylation enrichment (EPHB2): 0.427
- SH2 binding enrichment (c-Src SH2): 0.477
- SH2 binding enrichment (SHP2-C SH2): 0.9
- SH2 binding enrichment (Grb2 SH2): 0.794

Sequence: RKRQFYLYKGK [RSPO4_Y112_C107R]
- phosphorylation enrichment (Fer (mouse)): 0.494
- phosphorylation enrichment (AncSZ): 0.613
- phosphorylation enrichment (Hck): 0.358
- phosphorylation enrichment (EPHB1): 0.343
- phosphorylation enrichment (FGFR1): 0.437
- phosphorylation enrichment (c-Src): 0.44
- phosphorylation enrichment (Fyn): 0.503
- phosphorylation enrichment (Fes): 0.432
- phosphorylation enrichment (FGFR3): 0.4
- phosphorylation enrichment (Jak2): 0.228
- phosphorylation enrichment (MERTK): 0.602
- phosphorylation enrichment (c-Abl (mouse)): 0.296
- phosphorylation enrichment (EPHB2): 0.615
- SH2 binding enrichment (c-Src SH2): 0.378
- SH2 binding enrichment (SHP2-C SH2): 0.428
- SH2 binding enrichment (Grb2 SH2): 0.965

Sequence: WNDPDYMDSRR [GAA_Y407_L405P]
- phosphorylation enrichment (Fer (mouse)): 0.432
- phosphorylation enrichment (AncSZ): 1.46
- phosphorylation enrichment (Hck): 0.472
- phosphorylation enrichment (EPHB1): 0.989
- phosphorylation enrichment (FGFR1): 0.553
- phosphorylation enrichment (c-Src): 0.453
- phosphorylation enrichment (Fyn): 0.493
- phosphorylation enrichment (Fes): 1
- phosphorylation enrichment (FGFR3): 0.727
- phosphorylation enrichment (Jak2): 0.779
- phosphorylation enrichment (MERTK): 0.351
- phosphorylation enrichment (c-Abl (mouse)): 0.614
- phosphorylation enrichment (EPHB2): 0.687
- SH2 binding enrichment (c-Src SH2): 0.417
- SH2 binding enrichment (SHP2-C SH2): 0.581
- SH2 binding enrichment (Grb2 SH2): 0.679

Sequence: FECKWYIPLTD [BCR_Y756_D752E_YF]
- phosphorylation enrichment (Fer (mouse)): 0.592
- phosphorylation enrichment (AncSZ): 1.23
- phosphorylation enrichment (Hck): 0.538
- phosphorylation enrichment (EPHB1): 0.754
- phosphorylation enrichment (FGFR1): 0.497
- phosphorylation enrichment (c-Src): 0.451
- phosphorylation enrichment (Fyn): 0.434
- phosphorylation enrichment (Fes): 1.49
- phosphorylation enrichment (FGFR3): 1
- phosphorylation enrichment (Jak2): 1.32
- phosphorylation enrichment (MERTK): 0.433
- phosphorylation enrichment (c-Abl (mouse)): 0.796
- phosphorylation enrichment (EPHB2): 0.723
- SH2 binding enrichment (c-Src SH2): 0.561
- SH2 binding enrichment (SHP2-C SH2): 0.817
- SH2 binding enrichment (Grb2 SH2): 0.685

Sequence: GQSKGYRPKLY [SIPA1L3_Y1376]
- phosphorylation enrichment (Fer (mouse)): 0.411
- phosphorylation enrichment (AncSZ): 0.43
- phosphorylation enrichment (Hck): 0.4
- phosphorylation enrichment (EPHB1): 0.316
- phosphorylation enrichment (FGFR1): 0.357
- phosphorylation enrichment (c-Src): 0.387
- phosphorylation enrichment (Fyn): 0.45
- phosphorylation enrichment (Fes): 0.489
- phosphorylation enrichment (FGFR3): 0.454
- phosphorylation enrichment (Jak2): 0.416
- phosphorylation enrichment (MERTK): 0.431
- phosphorylation enrichment (c-Abl (mouse)): 0.329
- phosphorylation enrichment (EPHB2): 0.393
- SH2 binding enrichment (c-Src SH2): 0.531
- SH2 binding enrichment (SHP2-C SH2): 0.824
- SH2 binding enrichment (Grb2 SH2): 0.662

Sequence: GEEIKDMLWLS [OTC_Y55_Y55D]
- phosphorylation enrichment (Fer (mouse)): 0.428
- phosphorylation enrichment (AncSZ): 0.913
- phosphorylation enrichment (Hck): 0.446
- phosphorylation enrichment (EPHB1): 0.448
- phosphorylation enrichment (FGFR1): 0.475
- phosphorylation enrichment (c-Src): 0.361
- phosphorylation enrichment (Fyn): 0.475
- phosphorylation enrichment (Fes): 1
- phosphorylation enrichment (FGFR3): 0.566
- phosphorylation enrichment (Jak2): 0.822
- phosphorylation enrichment (MERTK): 0.425
- phosphorylation enrichment (c-Abl (mouse)): 0.672
- phosphorylation enrichment (EPHB2): 0.462
- SH2 binding enrichment (c-Src SH2): 0.501
- SH2 binding enrichment (SHP2-C SH2): 0.584
- SH2 binding enrichment (Grb2 SH2): 0.807
